Experimental findings from US20180185504A1 (Regeneron, published 2018) are described below.

Substitutions are numbered along the chain they refer to. Names may count otherwise.

First the molecules themselves.
T1: human prolactin receptor (PRLR) (human, UniProt P16471 25-622)
T1 sequence: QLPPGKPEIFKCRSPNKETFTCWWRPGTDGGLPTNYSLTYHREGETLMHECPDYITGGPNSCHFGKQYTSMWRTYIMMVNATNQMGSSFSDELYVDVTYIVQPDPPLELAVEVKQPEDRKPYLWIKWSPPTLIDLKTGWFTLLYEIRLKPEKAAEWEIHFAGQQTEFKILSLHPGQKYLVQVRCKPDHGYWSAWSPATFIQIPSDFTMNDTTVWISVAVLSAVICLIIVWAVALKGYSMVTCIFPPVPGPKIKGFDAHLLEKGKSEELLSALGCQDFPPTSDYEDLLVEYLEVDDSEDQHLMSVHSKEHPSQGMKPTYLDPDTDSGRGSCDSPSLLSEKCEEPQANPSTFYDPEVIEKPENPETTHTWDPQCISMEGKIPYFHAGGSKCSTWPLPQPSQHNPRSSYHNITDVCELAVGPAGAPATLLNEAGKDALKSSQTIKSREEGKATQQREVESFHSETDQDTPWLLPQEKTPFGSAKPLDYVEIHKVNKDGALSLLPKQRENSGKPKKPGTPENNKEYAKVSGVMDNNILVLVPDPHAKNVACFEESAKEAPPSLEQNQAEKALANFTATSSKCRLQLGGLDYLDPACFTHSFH

T2: hPRLR.mmh (soluble monomeric human PRLR) (human)
T2 construct: called soluble monomeric PRLR protein
T2 chain: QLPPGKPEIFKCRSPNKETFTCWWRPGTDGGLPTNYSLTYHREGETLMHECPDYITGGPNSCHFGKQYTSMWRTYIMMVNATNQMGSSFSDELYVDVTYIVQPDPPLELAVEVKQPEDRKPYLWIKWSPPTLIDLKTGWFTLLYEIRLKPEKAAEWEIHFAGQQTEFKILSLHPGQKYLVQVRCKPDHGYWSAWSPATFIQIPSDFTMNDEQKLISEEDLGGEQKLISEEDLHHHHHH

T3: hPRLR.mFc (soluble dimeric human PRLR) (human)
T3 construct: dimeric PRLR construct
T3 chain: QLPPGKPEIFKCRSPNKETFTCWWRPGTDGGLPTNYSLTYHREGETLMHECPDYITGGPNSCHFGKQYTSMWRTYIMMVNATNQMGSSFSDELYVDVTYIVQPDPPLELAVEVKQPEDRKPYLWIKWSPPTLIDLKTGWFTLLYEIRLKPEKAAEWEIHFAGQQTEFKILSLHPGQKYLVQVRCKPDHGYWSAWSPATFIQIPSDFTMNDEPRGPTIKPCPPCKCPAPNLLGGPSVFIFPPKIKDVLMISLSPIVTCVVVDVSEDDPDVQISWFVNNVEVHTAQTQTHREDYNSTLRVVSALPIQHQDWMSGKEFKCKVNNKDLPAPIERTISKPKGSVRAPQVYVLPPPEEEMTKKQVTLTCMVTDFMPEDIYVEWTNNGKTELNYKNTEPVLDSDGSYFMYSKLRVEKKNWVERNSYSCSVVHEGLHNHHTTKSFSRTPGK

T4: macaca fascicularis (mf) PRLR.mmh (soluble monomeric monkey PRLR) (Macaca fascicularis)
T4 construct: called soluble monomeric PRLR protein
T4 chain: T2 chain with I76V, A110T, I125M, I158T, T207I

B1: H1H6960N-DM1 (antibody, human IgG1, V domains shown)
VH: EVQLVESGGGLVKPGGSLRLSCAASGITFSSYSMNWVRQAPGKGLEWVSSISTRSSLIHYADSVKGRFTISRDNAKNSLYLQMNSLRDEDTAVYYCARWDAAAAFDYWGQGTLVIVSS
VL: DIQLTQSPSFLSASVGDRVTITCWASQGISSYLAWYQQKPGKAPKLLIYVASTLQSGVPSRFSGSGSGTEFTLTISSLQPEDFATYFCQQLNSYPLTFGGGTKVEIK
modifications: DM1 conjugated through SMCC linker; attachment residues not stated
B2: H1H6793P-DM1 (antibody, human IgG1, V domains shown)
VH: EVQLVESGGGLVQPGGSLRLSCAASGFSFSIYAMSWFRQAPGKGLEWVSAINGRGDGTHYADSVKGRFTISRDNSKTTLYLQMSSLRAEDTAVYYCAKPVMSTNGFDIWGQGTMVTVSS
VL: DIQMTQSPSTLSASVGDRVTITCRASQSISSWLAWYQLKPGKAPKLLIYKASNLESGVPSRFSGSGSGTEFTLTISSLQPDDFATYYCQQYNIYWTFGQGTKVEIK
modifications: DM1 conjugated through SMCC linker; attachment residues not stated
B3: H1H6762P-DM1 (antibody, human IgG1, V domains shown)
VH: QVQLVESGGGVVQPGRSLRLSCAASGFTFSHYGMVWVRQPPGKGLEWVALISFDGTTKYYADSVKGRFTISRDNSKNTLYLQMNSLRAEDTAVYFCVGAIAAAAFDLWGRGTLVTVSS
VL: EIVMTQSPATLSVSPGERATLSCRASQSVSSDLAWYQQKPGQAPRLLIYSASARATGIPARFTGSGSGTDFTLTISSLQSEDFAVYYCQQYNNWPMYTFGQGTKLEIK
modifications: DM1 conjugated through SMCC linker; attachment residues not stated
B4: H1H6958N2 (antibody, human IgG1, V domains shown)
VH: QVQLVESGGGVVQPGRSLRLSCGASGFTFRNYGMQWVRQGPGKGLEWVTLISFDGNDKYYADSVKGRFTISRDNSKNTLFLQMNSLRTEDTAVYYCARGGDFDYWGQGTLVTVSS
VL: DIQMTQSPSSLSASVGDRVTITCRASQDIRKDLGWYQQKPGKAPKRLIYAASSLHSGVPSRFSGSGSGTEFTLTISSLQPEDFATYYCLQHNSYPMYTFGQGTKLEIK
notes: Tested with human IgG1 Fc (H1H); also called H2M6958N2
B5: H1H6960N (antibody, human IgG1, V domains shown)
VH: B1 VH
VL: B1 VL
notes: Tested with human IgG1 Fc (H1H); also called H2M6960N
B6: H1H6804P (antibody, human IgG1, V domains shown)
VH: QVTLKESGPVLVKPTQTLSLTCTVSGFSLSDAGMGVSWIRQPPGKALEWLAHIFSNDGKSYSTSLKSRLTISKDTSKRQVVLTMTNMDPVDTATYYCARIRTGTYSLYLDYWGQGTLVTVSS
VL: DIQMTQSPSSLSASVGDRVTITCRASQSINSYLNWYQQKPGKAPKLLLYFASSLQSGVPSRFSGSGSGTDFTLTISSLQPEDFASYYCQESYSTPWTFGQGTKVEIK
notes: Human IgG1 Fc (H1H)
B7: H1H6953N (antibody, human IgG1, V domains shown)
VH: EVQLLESGGGLVQPGGTLRLSCAASGFTFSAYAMSWVRQAPGKGLEWVSSINVRAGDTYYADSVKGRFTISRDNSKNTLFLLMNSLRAEDTAAYYCAKARYSSNWGFDFWGQGTLVTVSS
VL: DIVMTQSPDSLTVSLGARTTINCQSSQTILHSSNNHNYLAWYQQKPGLPPKLLIYWSSTRESGVPDRFSGSGSGTDFTLTISSLQAEDVAIYYCQQYSNTPYTFGQGTKLEIN
notes: Tested with human IgG1 Fc (H1H); also called H1M6953N
B8: H1H6807P (antibody, V domains shown)
VH: QVQLVESGGGVVQPGRSLRLSCAASGFTFSDYNMHWVRQAPGKGLEWVAVIWYDGSNKHYADSVKGRFTISRDNSKNTLYLQMNSLRAEDTAVYYCARDGFTIFGMVLDYWGQGTLVTVSS
VL: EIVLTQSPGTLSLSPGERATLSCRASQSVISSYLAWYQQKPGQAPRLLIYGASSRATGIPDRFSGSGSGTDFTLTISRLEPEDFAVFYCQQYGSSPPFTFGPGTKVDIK
notes: Human IgG1 Fc (H1H)
B9: H1H6959N2 (antibody, human IgG1, V domains shown)
VH: EVQLVESGGGLVQPGRSLRLSCAASGFTFDDYAMHWVRQAPGKGLEWVSGISWHSGIIGYADSVKGRFTISRDNAKNSLYLQMNSLRTEDAALYYCAKIGSYFYFDSWGQGTLVTVSS
VL: EIVLTQSPGTLSLSPGERATLSCRASQSVSSNYLAWYQQKPGQAPRLLIYGASSRATGIPDRFSGSGSGTDFTLTISRLEPEDFAVYYCQQFGSSGYTFGQGTNLEIK
notes: Tested with human IgG1 Fc (H1H); also called H2M6959N2

For one assay, the target named is T1, human prolactin receptor (PRLR). The assay is described as follows: cell-based or functional assay.
As to B1, the “% Kill, 293/PRLR cells” value came out at 95%; the “% Kill, PC3/PRLR cells” value worked out at 82%; the “IC50, cell viability, 293/PRLR cells” value came to 0.38 nM; the “IC50, cell viability, PC3/PRLR cells” value stood at 1.13 nM.

Turning to B2, the “% Kill, PC3/PRLR cells” value worked out at 65% and the “IC50, cell viability, PC3/PRLR cells” value worked out at 3.65 nM.

As to B3, the “% Kill, PC3/PRLR cells” value was found to be 66% and the “IC50, cell viability, PC3/PRLR cells” value was 0.98 nM.

Another assay has the same target. The assay is described as follows: cell-based or functional assay. The source holds these as a separate data set.
With B1, the “% Kill, MCF7/PRLR cells” value is 78%; the “% Kill, MCF7 cells” value is 77%; the “% Kill, T47D cells” value came to 71%; the “IC50, cell viability, MCF7/PRLR cells” value was found to be 0.29 nM. For the same molecule, the “IC50, cell viability, MCF7 cells” value came out at 100 nM and the “IC50, cell viability, T47D cells” value amounted to 5.1 nM.

With B2, the “% Kill, MCF7/PRLR cells” value was 87%; the “% Kill, MCF7 cells” value was 67%; the “% Kill, T47D cells” value was 53%; the “IC50, cell viability, MCF7/PRLR cells” value was determined as 0.54 nM. For the same molecule, the “IC50, cell viability, MCF7 cells” value is 125 nM and the “IC50, cell viability, T47D cells” value stood at 11.1 nM.

Regarding B3, the “% Kill, MCF7/PRLR cells” value stood at 83%; the “% Kill, MCF7 cells” value was 64%; the “% Kill, T47D cells” value was 80%; the “IC50, cell viability, MCF7/PRLR cells” value is 0.46 nM. Also, the “IC50, cell viability, MCF7 cells” value amounted to 110 nM and the “IC50, cell viability, T47D cells” value worked out at 12.6 nM.

A further assay has as its target T2, hPRLR.mmh (soluble monomeric human PRLR). The assay can be described thus: SPR Biacore, 25 C, mAb capture. As to the method: (§1) Measurements were conducted on a T200 Biacore instrument. Kinetic association (kₐ) and dissociation (kd) rate constants were determined by processing and fitting the data to a 1:1 binding model using Scrubber 2.0 curve fitting software.
For the molecule B4, binding was characterised by a dissociation constant (Kd) of 1.17 nM, the T½ was 42.5 min, the koff stood at 0.000272 s⁻¹ and the kon was determined as 233000 M⁻¹ s⁻¹.

B5 yielded a dissociation constant (Kd) of 6.74 nM, a T½ of 15.8 min, a koff of 0.000729 s⁻¹ and a kon of 108000 M⁻¹ s⁻¹.

The molecule B6 returned a Kd of 1.4 nM, a T½ of 18 min, a koff of 0.000634 s⁻¹ and a kon of 453000 M⁻¹ s⁻¹.

Turning to B7, the Kd is 0.268 nM, the T½ was determined as 54.5 min, the koff worked out at 0.000212 s⁻¹ and the kon came out at 792000 M⁻¹ s⁻¹.

B8: binding was characterised by a dissociation constant (Kd) of 0.189 nM, the T½ amounted to 80 min, the koff amounted to 0.000144 s⁻¹ and the kon was determined as 761000 M⁻¹ s⁻¹.

B9 gave a dissociation constant Kd of 202 nM, a T½ of 0.3 min, a koff of 0.036 s⁻¹ and a kon of 179000 M⁻¹ s⁻¹.

For the next assay, the target named is T3, hPRLR.mFc (soluble dimeric human PRLR). The assay can be described thus: SPR Biacore, 25 C, mAb capture. On the procedure:
as §1
Turning to B4, the Kd was 0.0867 nM, the T½ is 316 min, the koff is 3.66e-05 s⁻¹ and the kon amounted to 422000 M⁻¹ s⁻¹.

In the case of B5, binding was put at a Kd of 0.141 nM, the T½ was 324 min, the koff was 3.56e-05 s⁻¹ and the kon is 252000 M⁻¹ s⁻¹.

For B6, the Kd turned out to be 0.193 nM, the T½ turned out to be 133 min, the koff stood at 8.69e-05 s⁻¹ and the kon came to 451000 M⁻¹ s⁻¹.

The molecule B7 registered a Kd of 0.067 nM, a T½ of 242 min, a koff of 4.77e-05 s⁻¹ and a kon of 711000 M⁻¹ s⁻¹.

The molecule B8 yielded a Kd of 0.0803 nM, a T½ of 212 min, a koff of 5.46e-05 s⁻¹ and a kon of 680000 M⁻¹ s⁻¹.

B9 showed a Kd of 1.45 nM, a T½ of 22.3 min, a koff of 0.000518 s⁻¹ and a kon of 359000 M⁻¹ s⁻¹.

The target of another assay is T4, macaca fascicularis (mf) PRLR.mmh …. The assay is described as follows: SPR Biacore, 25 C, mAb capture. As to the method: as §1
The molecule B4 yielded a dissociation constant (Kd) of 1.44 nM, a T½ of 41.3 min, a koff of 0.00028 s⁻¹ and a kon of 195000 M⁻¹ s⁻¹.

As for B5, binding was characterised by a dissociation constant (Kd) of 6.2 nM, the T½ amounted to 19.8 min, the koff was determined as 0.000583 s⁻¹ and the kon was 94000 M⁻¹ s⁻¹.

For B6, the Kd came to 1.99 nM, the T½ was determined as 18 min, the koff amounted to 0.000657 s⁻¹ and the kon was 331000 M⁻¹ s⁻¹.

B7 returned a Kd of 0.438 nM, a T½ of 36.3 min, an off-rate constant (koff) of 0.000319 s⁻¹ and a kon of 727000 M⁻¹ s⁻¹.

Take B8: the Kd was determined as 0.346 nM, the T½ worked out at 76 min, the koff turned out to be 0.000151 s⁻¹ and the kon was 437000 M⁻¹ s⁻¹.

B9: the Kd is 129 nM, the T½ was found to be 0.7 min, the koff was determined as 0.0167 s⁻¹ and the kon turned out to be 129000 M⁻¹ s⁻¹.
